This note sets out measurements from the supplement of paper PMC9112550, “Optimization of the antimicrobial peptide Bac7 by deep mutational scanning” (BMC Biology, 2022).

For the series, the system named is Escherichia coli TOP10. Put plainly: shrunken log2 fold change of peptide-encoding DNA abundance (4.5 h post-induction vs induction); higher = less antimicrobial activity (less host growth inhibition). As to conditions: time post-induction: 4.5 h; library: site-saturation at positions 5, 18, 19, 20.
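Further: peptides expressed intracellularly from a pBAD plasmid library in pooled LB shake-flask culture, induced with 0.3% L-arabinose, DNA abundance read by NGS, three biological replicates, DESeq2 with apeglm shrinkage.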

In the case of RRIRIRPPRLPRPRPRPMGCPRP, the “shrunken log2 fold change” value is 0.00177.

For RRIRERPPRLPRPRPRPSANPRP, the “shrunken log2 fold change” value was -0.35.

For the sequence RRIRARPPRLPRPRPRPMGQPRP, the “shrunken log2 fold change” value worked out at 0.229.

In the case of RRIRARPPRLPRPRPRPQPWPRP, the “shrunken log2 fold change” value is 0.536.

For the sequence RRIRTRPPRLPRPRPRPMHGPRP, the “shrunken log2 fold change” value was -0.0017.

Regarding RRIRNRPPRLPRPRPRPYAAPRP, the “shrunken log2 fold change” value was -0.4.

As for RRIRCRPPRLPRPRPRPPYKPRP, the “shrunken log2 fold change” value is -0.511.

RRIRWRPPRLPRPRPRPRNIPRP: the “shrunken log2 fold change” value is 0.00817.

Take RRIRKRPPRLPRPRPRPCYRPRP: the “shrunken log2 fold change” value is -0.0703.

Take RRIRERPPRLPRPRPRPDGTPRP: the “shrunken log2 fold change” value stood at 0.0123.

In the case of RRIRERPPRLPRPRPRPMYCPRP, the “shrunken log2 fold change” value was -0.064.

As to RRIRYRPPRLPRPRPRPWLQPRP, the “shrunken log2 fold change” value is -0.216.

As for RRIRSRPPRLPRPRPRPVFWPRP, the “shrunken log2 fold change” value is 0.365.

As for RRIRCRPPRLPRPRPRPHCGPRP, the “shrunken log2 fold change” value was -0.156.

With RRIRQRPPRLPRPRPRPKSNPRP, the “shrunken log2 fold change” value is -0.29.

On to RRIRLRPPRLPRPRPRPTWPPRP, for which the “shrunken log2 fold change” value was determined as 0.705.

In the case of RRIRSRPPRLPRPRPRPPSHPRP, the “shrunken log2 fold change” value came out at 0.103.

As for RRIRHRPPRLPRPRPRPRFEPRP, the “shrunken log2 fold change” value turned out to be 0.185.

On to RRIRMRPPRLPRPRPRPGINPRP, for which the “shrunken log2 fold change” value was -0.319.

For the sequence RRIRMRPPRLPRPRPRPAGRPRP, the “shrunken log2 fold change” value was 0.725.

As to RRIRSRPPRLPRPRPRPNSIPRP, the “shrunken log2 fold change” value was -0.861.

In the case of RRIRRRPPRLPRPRPRPPSYPRP, the “shrunken log2 fold change” value was 0.26.

Consider RRIRWRPPRLPRPRPRPGQAPRP, for which the “shrunken log2 fold change” value amounted to 1.06.

On to RRIRARPPRLPRPRPRPYHNPRP, for which the “shrunken log2 fold change” value was -1.16.

With RRIRLRPPRLPRPRPRPVCMPRP, the “shrunken log2 fold change” value was -0.246.

Consider RRIRPRPPRLPRPRPRPRFLPRP, for which the “shrunken log2 fold change” value is 0.146.

With RRIRCRPPRLPRPRPRPRAMPRP, the “shrunken log2 fold change” value was determined as 0.914.

Regarding RRIRTRPPRLPRPRPRPTTCPRP, the “shrunken log2 fold change” value is -0.00487.

RRIRTRPPRLPRPRPRPEDYPRP: the “shrunken log2 fold change” value is -0.00822.

As to RRIRDRPPRLPRPRPRPNIIPRP, the “shrunken log2 fold change” value was -0.117.

RRIRRRPPRLPRPRPRPLLWPRP: the “shrunken log2 fold change” value came to 0.421.

With RRIRYRPPRLPRPRPRPDCIPRP, the “shrunken log2 fold change” value was -0.501.

RRIRFRPPRLPRPRPRPVHQPRP: the “shrunken log2 fold change” value came out at 0.124.

Consider RRIRYRPPRLPRPRPRPMLFPRP, for which the “shrunken log2 fold change” value was -0.347.

Take RRIRTRPPRLPRPRPRPRDQPRP: the “shrunken log2 fold change” value was found to be 0.224.

Take RRIRYRPPRLPRPRPRPVHLPRP: the “shrunken log2 fold change” value is -0.328.

Consider RRIRGRPPRLPRPRPRPMGMPRP, for which the “shrunken log2 fold change” value was 0.886.

As for RRIRWRPPRLPRPRPRPNIWPRP, the “shrunken log2 fold change” value was -0.153.

For the sequence RRIRARPPRLPRPRPRPHDFPRP, the “shrunken log2 fold change” value turned out to be 0.0354.

For RRIRLRPPRLPRPRPRPLAIPRP, the “shrunken log2 fold change” value is 0.221.

As for RRIRQRPPRLPRPRPRPRTYPRP, the “shrunken log2 fold change” value was -0.049.

RRIRMRPPRLPRPRPRPTVFPRP: the “shrunken log2 fold change” value is 0.498.

RRIRDRPPRLPRPRPRPAYWPRP: the “shrunken log2 fold change” value was -0.0729.

For the sequence RRIRPRPPRLPRPRPRPNMSPRP, the “shrunken log2 fold change” value was -0.485.

For the sequence RRIRERPPRLPRPRPRPTGVPRP, the “shrunken log2 fold change” value is -0.129.

With RRIRRRPPRLPRPRPRPNNFPRP, the “shrunken log2 fold change” value was -0.00104.

Consider RRIRSRPPRLPRPRPRPPEIPRP, for which the “shrunken log2 fold change” value is -0.19.

For the sequence RRIRIRPPRLPRPRPRPHDEPRP, the “shrunken log2 fold change” value is -0.463.

RRIRHRPPRLPRPRPRPPHMPRP: the “shrunken log2 fold change” value is -0.115.

As to RRIRMRPPRLPRPRPRPENVPRP, the “shrunken log2 fold change” value is -0.0285.

Turning to RRIRTRPPRLPRPRPRPWPKPRP, the “shrunken log2 fold change” value turned out to be 0.218.

With RRIRDRPPRLPRPRPRPYACPRP, the “shrunken log2 fold change” value amounted to 0.0334.

As for RRIRPRPPRLPRPRPRPNLAPRP, the “shrunken log2 fold change” value worked out at 0.294.

As for RRIRGRPPRLPRPRPRPTRFPRP, the “shrunken log2 fold change” value came out at 0.19.

RRIRGRPPRLPRPRPRPKGQPRP: the “shrunken log2 fold change” value was 0.184.

Consider RRIRDRPPRLPRPRPRPAGNPRP, for which the “shrunken log2 fold change” value was found to be 0.0407.

Regarding RRIRSRPPRLPRPRPRPYLHPRP, the “shrunken log2 fold change” value is -0.757.

Take RRIRCRPPRLPRPRPRPNMCPRP: the “shrunken log2 fold change” value was -0.222.

For the sequence RRIRERPPRLPRPRPRPSYMPRP, the “shrunken log2 fold change” value was -0.0864.

Consider RRIRRRPPRLPRPRPRPQLVPRP, for which the “shrunken log2 fold change” value worked out at 0.0448.

Take RRIRGRPPRLPRPRPRPSLYPRP: the “shrunken log2 fold change” value amounted to 0.189.

Consider RRIRWRPPRLPRPRPRPMDTPRP, for which the “shrunken log2 fold change” value worked out at 0.128.

As for RRIRDRPPRLPRPRPRPWYVPRP, the “shrunken log2 fold change” value is -0.726.

On to RRIRDRPPRLPRPRPRPKTKPRP, for which the “shrunken log2 fold change” value was -0.0788.

Take RRIRIRPPRLPRPRPRPCPWPRP: the “shrunken log2 fold change” value was -0.161.

Turning to RRIRWRPPRLPRPRPRPWKLPRP, the “shrunken log2 fold change” value was -0.00166.

On to RRIRKRPPRLPRPRPRPSDFPRP, for which the “shrunken log2 fold change” value was -0.00266.

Turning to RRIRARPPRLPRPRPRPSMVPRP, the “shrunken log2 fold change” value was -0.263.

Take RRIRKRPPRLPRPRPRPFIRPRP: the “shrunken log2 fold change” value was -0.21.

In the case of RRIRARPPRLPRPRPRPCEKPRP, the “shrunken log2 fold change” value amounted to 0.0244.

As to RRIRKRPPRLPRPRPRPNLTPRP, the “shrunken log2 fold change” value is -0.112.

Take RRIRSRPPRLPRPRPRPHRKPRP: the “shrunken log2 fold change” value was -0.077.

Take RRIRFRPPRLPRPRPRPTYIPRP: the “shrunken log2 fold change” value was -0.434.

RRIRSRPPRLPRPRPRPTTMPRP: the “shrunken log2 fold change” value worked out at 0.0245.

Take RRIRLRPPRLPRPRPRPYFAPRP: the “shrunken log2 fold change” value is -0.233.

As to RRIRNRPPRLPRPRPRPATLPRP, the “shrunken log2 fold change” value was -0.365.

Turning to RRIRWRPPRLPRPRPRPLSSPRP, the “shrunken log2 fold change” value is -0.0482.

As for RRIRDRPPRLPRPRPRPNQFPRP, the “shrunken log2 fold change” value is -0.416.

With RRIRMRPPRLPRPRPRPTMHPRP, the “shrunken log2 fold change” value stood at 0.488.

As for RRIRRRPPRLPRPRPRPYSMPRP, the “shrunken log2 fold change” value was -1.39.

As for RRIRCRPPRLPRPRPRPIDTPRP, the “shrunken log2 fold change” value was -0.385.

For RRIRHRPPRLPRPRPRPNLSPRP, the “shrunken log2 fold change” value turned out to be 0.28.

With RRIRVRPPRLPRPRPRPIQRPRP, the “shrunken log2 fold change” value was -0.0384.

For RRIRPRPPRLPRPRPRPVAIPRP, the “shrunken log2 fold change” value was -0.0776.

As to RRIRNRPPRLPRPRPRPVEWPRP, the “shrunken log2 fold change” value turned out to be 0.00664.

In the case of RRIRCRPPRLPRPRPRPNGTPRP, the “shrunken log2 fold change” value was -0.0476.

On to RRIRIRPPRLPRPRPRPEQDPRP, for which the “shrunken log2 fold change” value was determined as 0.0197.

RRIRCRPPRLPRPRPRPLNNPRP: the “shrunken log2 fold change” value is -0.694.

For the sequence RRIRTRPPRLPRPRPRPGPWPRP, the “shrunken log2 fold change” value is 0.215.

In the case of RRIRHRPPRLPRPRPRPFSDPRP, the “shrunken log2 fold change” value is -0.149.

RRIRRRPPRLPRPRPRPIILPRP: the “shrunken log2 fold change” value is -0.406.

As to RRIRYRPPRLPRPRPRPKPSPRP, the “shrunken log2 fold change” value came to 0.433.

RRIRVRPPRLPRPRPRPSCCPRP: the “shrunken log2 fold change” value was -0.133.

For the sequence RRIRKRPPRLPRPRPRPYRNPRP, the “shrunken log2 fold change” value was 0.00408.

Turning to RRIRTRPPRLPRPRPRPGTHPRP, the “shrunken log2 fold change” value is -0.0792.

As to RRIRCRPPRLPRPRPRPLDSPRP, the “shrunken log2 fold change” value was -0.179.

Consider RRIRKRPPRLPRPRPRPIEVPRP, for which the “shrunken log2 fold change” value is 0.287.

Consider RRIRQRPPRLPRPRPRPTGQPRP, for which the “shrunken log2 fold change” value turned out to be 0.146.

Take RRIRARPPRLPRPRPRPQSLPRP: the “shrunken log2 fold change” value was 0.026.

Take RRIRIRPPRLPRPRPRPFDNPRP: the “shrunken log2 fold change” value is -1.1.

Turning to RRIRCRPPRLPRPRPRPENIPRP, the “shrunken log2 fold change” value is -1.32.

As to RRIRGRPPRLPRPRPRPRREPRP, the “shrunken log2 fold change” value is 0.381.

With RRIRLRPPRLPRPRPRPWRCPRP, the “shrunken log2 fold change” value came out at 0.336.

As to RRIRWRPPRLPRPRPRPHGEPRP, the “shrunken log2 fold change” value was 0.135.

As to RRIRERPPRLPRPRPRPKWQPRP, the “shrunken log2 fold change” value is -0.0355.

In the case of RRIRYRPPRLPRPRPRPRVVPRP, the “shrunken log2 fold change” value is -0.405.

On to RRIRVRPPRLPRPRPRPDNQPRP, for which the “shrunken log2 fold change” value was -0.0991.

Take RRIRFRPPRLPRPRPRPMMEPRP: the “shrunken log2 fold change” value was -0.426.

In the case of RRIRHRPPRLPRPRPRPGESPRP, the “shrunken log2 fold change” value was -0.0414.

For the sequence RRIRWRPPRLPRPRPRPQLCPRP, the “shrunken log2 fold change” value is 0.078.

With RRIRMRPPRLPRPRPRPARRPRP, the “shrunken log2 fold change” value turned out to be 1.35.

Consider RRIRFRPPRLPRPRPRPDVCPRP, for which the “shrunken log2 fold change” value was -0.1.

As to RRIRVRPPRLPRPRPRPAIRPRP, the “shrunken log2 fold change” value stood at 0.0362.

For RRIRTRPPRLPRPRPRPAPDPRP, the “shrunken log2 fold change” value is 0.15.

With RRIRIRPPRLPRPRPRPWYGPRP, the “shrunken log2 fold change” value was -1.24.

Turning to RRIRIRPPRLPRPRPRPCVQPRP, the “shrunken log2 fold change” value is 1.47.

Consider RRIRKRPPRLPRPRPRPFECPRP, for which the “shrunken log2 fold change” value is -0.0669.

As for RRIRKRPPRLPRPRPRPRYEPRP, the “shrunken log2 fold change” value is 0.362.

Consider RRIRYRPPRLPRPRPRPGFFPRP, for which the “shrunken log2 fold change” value was -0.205.

As to RRIRVRPPRLPRPRPRPKTMPRP, the “shrunken log2 fold change” value was found to be 0.196.

For RRIRTRPPRLPRPRPRPMEVPRP, the “shrunken log2 fold change” value came out at 0.117.

As to RRIRCRPPRLPRPRPRPEVDPRP, the “shrunken log2 fold change” value came out at 0.0462.

For RRIRFRPPRLPRPRPRPTAQPRP, the “shrunken log2 fold change” value is -0.00528.

Regarding RRIRVRPPRLPRPRPRPIYSPRP, the “shrunken log2 fold change” value is -0.203.

In the case of RRIRHRPPRLPRPRPRPSGNPRP, the “shrunken log2 fold change” value was -0.199.
